The array DNA melting data of Ke et al.

Assay: melting temperature; melt of duplexes
Conditions: sodium 0.0675 M; strand 1 µM

First: CGACGTGCTTCATGTGCTG+CAGCACATGAAGCACGTCG (((((((((((((((((((+)))))))))))))))))))
Second: CGACGTGCATCATGTGCTG+CAGCACATCGTGCACGTCG (((((((((..((((((((+))))))))..)))))))))
The Tm of the first is higher: 64.4 °C for the first, 47.2 °C for the second.

First: CGACGTGCCTTATGTGCTG+CAGCACATGACGCACGTCG ((((((((.(.((((((((+)))))))).).))))))))
Second: CGACGTGCTTTATGTGCTG+CAGCACATCTTGCACGTCG ((((((((...((((((((+))))))))...))))))))
The Tm of the first is lower: 45.4 °C for the first, 48.5 °C for the second.

First: CGACGTGCAGGATGTGCTG+CAGCACATGCAGCACGTCG ((((((((.(.((((((((+)))))))).).))))))))
Second: CGACGTGCAACATGTGCTG+CAGCACATGTTGCACGTCG (((((((((((((((((((+)))))))))))))))))))
The Tm of the first is lower: 55 °C for the first, 64.5 °C for the second.

First: CGACGTGCGTGATGTGCTG+CAGCACATCATGCACGTCG ((((((((.((((((((((+)))))))))).))))))))
Second: CGACGTGCGATATGTGCTG+CAGCACATTATGCACGTCG ((((((((...((((((((+))))))))...))))))))
The Tm of the first is higher: 60.2 °C for the first, 52.2 °C for the second.

Going from “CGACGTGCATCATGTGCTG+CAGCACATGGTGCACGTCG (((((((((.(((((((((+))))))))).)))))))))” to “CGACGTGCCACATGTGCTG+CAGCACATAGGGCACGTCG (((((((((..((((((((+))))))))..)))))))))”, the Tm falls from 60.1 °C to 54.7 °C.

Compared with “CGACGTGCAGGATGTGCTG+CAGCACATTCGGCACGTCG ((((((((.(.((((((((+)))))))).).))))))))”, “CGACGTGCCGAATGTGCTG+CAGCACATGCGGCACGTCG ((((((((((.((((((((+)))))))).))))))))))” is higher in Tm: 56.2 °C for the first, 61.6 °C for the second.

Going from “CGACGTGCCCTATGTGCTG+CAGCACATGATGCACGTCG ((((((((...((((((((+))))))))...))))))))” to “CGACGTGCAAAATGTGCTG+CAGCACATTCAGCACGTCG ((((((((..(((((((((+)))))))))..))))))))”, the Tm rises from 48.6 °C to 52.1 °C.

Compared with “CGACGTGCACTATGTGCTG+CAGCACATCGGGCACGTCG ((((((((.(.((((((((+)))))))).).))))))))”, “CGACGTGCCCGATGTGCTG+CAGCACATGCCGCACGTCG ((((((((...((((((((+))))))))...))))))))” is lower in Tm: 51.1 °C for the first, 48.1 °C for the second.

Going from “CGACGTGCGACATGTGCTG+CAGCACATTTAGCACGTCG ((((((((.(.((((((((+)))))))).).))))))))” to “CGACGTGCGTGATGTGCTG+CAGCACATGCAGCACGTCG ((((((((...((((((((+))))))))...))))))))”, the Tm rises from 52.2 °C to 54.1 °C.

First: CGACGTGCATGATGTGCTG+CAGCACATCTTGCACGTCG (((((((((.(((((((((+))))))))).)))))))))
Second: CGACGTGCGATATGTGCTG+CAGCACATCCTGCACGTCG ((((((((...((((((((+))))))))...))))))))
The Tm of the first is higher: 58.3 °C for the first, 49.5 °C for the second.

Going from “CGACGTGCCTAATGTGCTG+CAGCACATGGTGCACGTCG ((((((((...((((((((+))))))))...))))))))” to “CGACGTGCACCATGTGCTG+CAGCACATCTTGCACGTCG (((((((((..((((((((+))))))))..)))))))))”, the Tm falls from 48.3 °C to 45.7 °C.

First: CGACGTGCATAATGTGCTG+CAGCACATCTTGCACGTCG (((((((((..((((((((+))))))))..)))))))))
Second: CGACGTGCATTATGTGCTG+CAGCACATGAGGCACGTCG ((((((((.(.((((((((+)))))))).).))))))))
The Tm of the first is lower: 50.8 °C for the first, 54 °C for the second.

First: CGACGTGCTCGATGTGCTG+CAGCACATGGCGCACGTCG ((((((((.(.((((((((+)))))))).).))))))))
Second: CGACGTGCGTTATGTGCTG+CAGCACATGAGGCACGTCG ((((((((.(.((((((((+)))))))).).))))))))
The Tm of the first is lower: 50.8 °C for the first, 54.1 °C for the second.

Compared with “CGACGTGCTTAATGTGCTG+CAGCACATTACGCACGTCG ((((((((.((((((((((+)))))))))).))))))))”, “CGACGTGCTTAATGTGCTG+CAGCACATCTGGCACGTCG ((((((((...((((((((+))))))))...))))))))” is lower in Tm: 54.8 °C for the first, 49.7 °C for the second.

Compared with “CGACGTGCACAATGTGCTG+CAGCACATTCGGCACGTCG ((((((((..(((((((((+)))))))))..))))))))”, “CGACGTGCTCCATGTGCTG+CAGCACATGTGGCACGTCG ((((((((..(((((((((+)))))))))..))))))))” is higher in Tm: 49.7 °C for the first, 53.8 °C for the second.

Going from “CGACGTGCGCAATGTGCTG+CAGCACATGGGGCACGTCG ((((((((.(.((((((((+)))))))).).))))))))” to “CGACGTGCAAAATGTGCTG+CAGCACATGGGGCACGTCG ((((((((...((((((((+))))))))...))))))))”, the Tm falls from 56.5 °C to 51.7 °C.

Compared with “CGACGTGCTACATGTGCTG+CAGCACATCGTGCACGTCG ((((((((...((((((((+))))))))...))))))))”, “CGACGTGCTACATGTGCTG+CAGCACATCCCGCACGTCG ((((((((...((((((((+))))))))...))))))))” is higher in Tm: 46.6 °C for the first, 47.4 °C for the second.

Going from “CGACGTGCCCTATGTGCTG+CAGCACATACGGCACGTCG (((((((((.(((((((((+))))))))).)))))))))” to “CGACGTGCGTAATGTGCTG+CAGCACATAGAGCACGTCG ((((((((...((((((((+))))))))...))))))))”, the Tm rises from 53.5 °C to 54.4 °C.

Compared with “CGACGTGCCGTATGTGCTG+CAGCACATGACGCACGTCG ((((((((...((((((((+))))))))...))))))))”, “CGACGTGCCATATGTGCTG+CAGCACATCCCGCACGTCG ((((((((...((((((((+))))))))...))))))))” is lower in Tm: 47.8 °C for the first, 46.9 °C for the second.

Going from “CGACGTGCATGATGTGCTG+CAGCACATGAGGCACGTCG ((((((((.(.((((((((+)))))))).).))))))))” to “CGACGTGCGTCATGTGCTG+CAGCACATTTCGCACGTCG (((((((((..((((((((+))))))))..)))))))))”, the Tm rises from 52.6 °C to 53.1 °C.

Compared with “CGACGTGCATCATGTGCTG+CAGCACATCGAGCACGTCG ((((((((...((((((((+))))))))...))))))))”, “CGACGTGCTAAATGTGCTG+CAGCACATGTTGCACGTCG ((((((((.(.((((((((+)))))))).).))))))))” is higher in Tm: 48.9 °C for the first, 52.6 °C for the second.

Compared with “CGACGTGCAAGATGTGCTG+CAGCACATTCGGCACGTCG ((((((((...((((((((+))))))))...))))))))”, “CGACGTGCATTATGTGCTG+CAGCACATCAAGCACGTCG ((((((((.(.((((((((+)))))))).).))))))))” is lower in Tm: 51.3 °C for the first, 48.1 °C for the second.

Going from “CGACGTGCCGTATGTGCTG+CAGCACATAACGCACGTCG ((((((((..(((((((((+)))))))))..))))))))” to “CGACGTGCAAAATGTGCTG+CAGCACATACGGCACGTCG ((((((((...((((((((+))))))))...))))))))”, the Tm falls from 52.6 °C to 48 °C.

Going from “CGACGTGCTCCATGTGCTG+CAGCACATCACGCACGTCG ((((((((...((((((((+))))))))...))))))))” to “CGACGTGCGACATGTGCTG+CAGCACATACTGCACGTCG ((((((((...((((((((+))))))))...))))))))”, the Tm rises from 47 °C to 49.9 °C.

Going from “CGACGTGCATCATGTGCTG+CAGCACATACTGCACGTCG (((((((((..((((((((+))))))))..)))))))))” to “CGACGTGCGGTATGTGCTG+CAGCACATTCCGCACGTCG ((((((((((.((((((((+)))))))).))))))))))”, the Tm rises from 49.7 °C to 60 °C.

First: CGACGTGCTGCATGTGCTG+CAGCACATAGCGCACGTCG ((((((((...((((((((+))))))))...))))))))
Second: CGACGTGCCGGATGTGCTG+CAGCACATCAGGCACGTCG (((((((((.(((((((((+))))))))).)))))))))
The Tm of the first is lower: 54.2 °C for the first, 62.6 °C for the second.

Compared with “CGACGTGCCTCATGTGCTG+CAGCACATAAGGCACGTCG ((((((((((.((((((((+)))))))).))))))))))”, “CGACGTGCGTGATGTGCTG+CAGCACATTTTGCACGTCG ((((((((...((((((((+))))))))...))))))))” is lower in Tm: 56.2 °C for the first, 50.7 °C for the second.

First: CGACGTGCCTCATGTGCTG+CAGCACATGGGGCACGTCG (((((((((.(((((((((+))))))))).)))))))))
Second: CGACGTGCATTATGTGCTG+CAGCACATTAGGCACGTCG ((((((((.(.((((((((+)))))))).).))))))))
The Tm of the first is higher: 61.2 °C for the first, 51.9 °C for the second.

Compared with “CGACGTGCGCGATGTGCTG+CAGCACATCGTGCACGTCG ((((((((.((((((((((+)))))))))).))))))))”, “CGACGTGCCGGATGTGCTG+CAGCACATGCGGCACGTCG ((((((((((.((((((((+)))))))).))))))))))” is higher in Tm: 62.4 °C for the first, 62.6 °C for the second.

Compared with “CGACGTGCACGATGTGCTG+CAGCACATGGGGCACGTCG ((((((((.(.((((((((+)))))))).).))))))))”, “CGACGTGCCGAATGTGCTG+CAGCACATTAGGCACGTCG (((((((((.(((((((((+))))))))).)))))))))” is higher in Tm: 54.9 °C for the first, 59.6 °C for the second.

Going from “CGACGTGCATCATGTGCTG+CAGCACATCCAGCACGTCG ((((((((...((((((((+))))))))...))))))))” to “CGACGTGCAATATGTGCTG+CAGCACATCAAGCACGTCG ((((((((...((((((((+))))))))...))))))))”, the Tm rises from 46.6 °C to 48 °C.

First: CGACGTGCAGAATGTGCTG+CAGCACATGATGCACGTCG (((((((((..((((((((+))))))))..)))))))))
Second: CGACGTGCCTTATGTGCTG+CAGCACATGCGGCACGTCG (((((((((..((((((((+))))))))..)))))))))
The Tm of the first is higher: 57.9 °C for the first, 52.3 °C for the second.

Going from “CGACGTGCCGGATGTGCTG+CAGCACATAGAGCACGTCG ((((((((...((((((((+))))))))...))))))))” to “CGACGTGCAGTATGTGCTG+CAGCACATTCAGCACGTCG ((((((((.(.((((((((+)))))))).).))))))))”, the Tm rises from 50.2 °C to 51.1 °C.

Compared with “CGACGTGCAGAATGTGCTG+CAGCACATAGGGCACGTCG ((((((((...((((((((+))))))))...))))))))”, “CGACGTGCCGCATGTGCTG+CAGCACATTGAGCACGTCG ((((((((...((((((((+))))))))...))))))))” is higher in Tm: 49.2 °C for the first, 49.5 °C for the second.

Compared with “CGACGTGCTTTATGTGCTG+CAGCACATTACGCACGTCG ((((((((.(.((((((((+)))))))).).))))))))”, “CGACGTGCGGGATGTGCTG+CAGCACATTGTGCACGTCG ((((((((...((((((((+))))))))...))))))))” is higher in Tm: 48.7 °C for the first, 49.4 °C for the second.

Going from “CGACGTGCTCTATGTGCTG+CAGCACATAGGGCACGTCG ((((((((.((((((((((+)))))))))).))))))))” to “CGACGTGCATGATGTGCTG+CAGCACATGGGGCACGTCG ((((((((...((((((((+))))))))...))))))))”, the Tm falls from 58.4 °C to 50 °C.
